Results: the DeepSol protein solubility set

assay: soluble on expression in E. coli; label from the status in PepcDB or PDB records

Sequence | soluble on expression in E. coli
MSLGKDIKVGYNWELSGNVSSYGNSMKNGADLAVKEINAAGGVGGKKLKVLSQDNKSENAEAATVATNLVTKGANVIIGPATSGAAASSTPKVNAAAVPMIAPAATQDNLVYGSDGKTLNQYFFRATFVDNYQGKLLSQYATDNLKAKKVVLFYDNSSDYSKGVAKSFKESYSGKIVDSMTFSAGDTDFQASLTKLKGKEYDAIVMPGYYTETGLIVKQARDLGISKPVLGPDGFDSPKFVQSATPVGASNVYYLTGFTTQGSTKAKAFHDHYVKAYGEEPSMFSALSYDAVYMAAKSAKGAKTSIDIKKALAKLKDFKGVTGKMSIDKNHNVVKSAYVVKLEDGKTSSVNIISAKEGHHHHHH | soluble
MSLGKKDKRWVLQRKNDHYYNLAKKRNYRSRATYKLFQLNEKFNLIKERNVVVDLGCAPGGWLQAARDIVGDKGFIVGIDLQTVKPLPYENVIAIKGDMTKEEILKQARDLLPEKPDVIICDASPNISGVWDVDHARSLELTTMALMTATKMLKKGGNFVVKVFQGDLFEKYVQLVSEYFDKAFTTKPRASRDESAEVYVIGKRFNGRKFDMNSKSPIVKLLDTNPKENEITSPSLRKDISKEDSGLMIKRIKEMRSKKEGHHHHHH | soluble
MSLGNFHTMLDALLEDQEEAVLATIVQVEGSAYRKAGASMLFKKKGRRIGLLSGGCVEEDVFQRISALGDQLTSTLIPYDMRSEDDLSWGMGAGCNGIIHVHAERITQEKRRHYEKVRDCLHSGKAVTSVIKIESSHYLFLTENGHFGNWPDAPLQDIQRTVSTLHLPHFDQTTNMFIQRIEPKPRLILFGAGPDNVPLANLAADTGFSVIVTDWRPAYCTSSLFPKADQLITAFPEQMLSEFQFFPHDAAVVATHHYQHDQTIINFLFSQNLHYIGLLGSANRTKRLLSGKHPPSHFYSPVGLKIGAEGPEEIAVSVVAEIIQTRKRVAVVEGGSHHHHHH | soluble
MSLGQKGHKDSLYPCGGTPESSLHEALDQCMTALDLFLTNQFSEALSYLKPRTKESMYHSLTYATILEMQAMMTFDPQDILLAGNMMKEAQMLCQRHRRKSSVTDSFSSLVNRPTLGQFTEEEIHAEVCYAECLLQRAALTFLQDENMVSFIKGGIKVRNSYQTYKELDSLVQSEGHHHHHH | not soluble
MSLGRHSDNSLQESANHTVLLTSPTNTIPKDSRQRSQQFMQNLQDEICTALEQLDGKASFHQDHWERAEGGEGRTRVIREGRVFEQGGVNFSAVWGNSLPASILAQRPEAAGHEFFATGTSMVLHPRNPYVPTVHLNYRYFEAGPIWWFGGGADLTPYYAFKEDAVHFHQTLKNACDVHNPEYYPTFKRWCDEYFYLRHREEQRGIGGIFFDYQDASGKLYVESQTDSSVAIYSQKVGNVARNWEDIFAFVQSCGQAFLPAYLPIVERRQGIEYGDRQRNFQLYRRGRYVEFNLVYDRGTVFGLQTKGRTESILMSLPPLARWEYCYEPEAGSPEAELTEVFLQPRDWVEGHHHHHH | not soluble
MSLGSMSATPLQAGLKTLQLTEPFRIAHGTSTERQVLRLRWNGAVGEAPVVPYYKESAAVTLEWLQALDWNGSPAPKDGPRLGRLALDLLWHDAVGRDKRQTLGQMLHLNPAQTPPGCRSFSIPTDLDKFAEKVAQVSRQFQVLKLKTGSGNVEFDEAIVATARKAAPDAKLLVDANGGWTVEETAAILPKLVKYDLTLVEQPFHHDGGSESWRELKYLLPSHSIPLYADESAQGPDDVLTLAGLVDGVNVKLLKCGSIAEAQTMIRFARASGMGVLLGCMIESSVGVTAAAHLAPLADWIDLDGHLYVADDDYEGVSYDEQGRLHLRDLPGLGVTPREGHHHHHH | soluble
MSLGSNKTIIINLNNLEHNLNLIKNKIGEKEIVATLKGDAYGHGLINIFKFLKSKNINYFGLSNIEDAKTLKKIDKNIKILMYIKVDKKEIKNLIKFELVPFVSDFEYLFLIEKECALQKNKIKVHLKIDIGMNRYGIKIDDALEIATYIQNSKFLELEGICSHLPSIENFKTTQKQIEQFLFFLETLKQKNIHPKFVHISNSGHIINYKLNPQFNMVRPGLILYGYCQSLKNKKPALNFKPVLSLFSKVIFIKNVKKGEKISYSGIFQAKEDMKIGIIPIGYFDGIPQNISNDFYFLINNKKCKIRGKVCMNLTIVEIPKDLKVKTGSKVEIVSEKLSIDEMSKFSKRSHYELLCNIGKYEKRKYLDEGHHHITTDPNSSSVDKLAAALEHHHHHH | soluble
MSLGSNPPTKILDFLFLGGVSDATNPEFLRRENIVTILNVSREEYWSVDKGITIHPFPLEDNAEENIRKFFSHTYRLLEAARSSASPARPPCVLVHSRYGISRSVTIVLAYLMRRNGWSLNDALQYVMCRRPHVEPNVGFMNVLLSFQRDMDPQKRDIQRNEGHHHHHH | not soluble
MSLGTRAPSFTPERSVEISGGEDGYFQARGTISGPLGETLAGRLSAYRTRDDGYVKNLHDGNTLNGGARQGFRGQLLFKPNDDFSLRWIGDYNEEDSDNGVLTLFSSGPTVNGVNRYEQRAAAAGATLVDGHRRKVNFDSDQQVTVFQGGTSVEANWKLANDFTLTSISAYRWWDFTPRNDDGLDVPAAYNAGVSVRDKQWSQEIRLASPSGGFFDYVLGAYYFGQDLDNKSFTDYGPRADIWNGTPAGALSDVSTRGRGHIDTDSYALFAQGTWHLTERLDLTAGVRGTYEEKSAWVEREGHHHHHH | soluble
MSLHEKKKENVPEWQHFDAAIFNKAKKEHKLVLLHLGANWCHWCHVMEEQTYTDPFVLELLNKSYIACKEDHDERQDLTSLYAAYGWPATIVFDADGNELLKEAGFISSDRFIALLKKLVKNPTPMPTDSVQIEPAVASDSSTQQALNTLKKKFYSSLDIEGGGFNYAQKYIDFETFEYAFNHSENDSILTKWLYNSVVNSAGLNDNVWGGVFQYSTHSDWNHLHYEKLLSIQARYIKMYCWYYKRFNDADALSHAESAAKYVQRFLDDPKGGFYNSQDADVTPGEKATEYFKLNNADRIKKGIPAIDKNSYTSDNAEMIEACIILSAATGNNTYLEKAVRCFDFIKKNNKTNNAYAHGSNYTNSISLKDNIAIVKSALLLYRATQDAAYKSEALRIIQEVAGTFYSKKGYMISFIGNSPIKGSYNITENIEACRLLNYCSHVFNEPKYKILAQTIFGFLTNENLVKTMSTEPGILSAYEELNTEPLKAVLMIKNGTELKTDFLNSSLSFPAFYFDNTIYTSTTIPSDKYELFDSFDKNFIVACTASYCSSPMFSKDGFEKFIYRRAFSTEGHHHHHH | soluble
MSLHNRFSLAQTLVTTVEAESGTRAGGLTIATANAGYSGTGYITNMTSAADKLTIPVTVPSAGNYQLVIRYNGPYGPKDQDIYVNGVFVSSLHFPETTGYTDLTAGSLTLNAGANTIGIYKNWGYTDFDKISLFTVPLHDYSTVAPNLIDANATPEAKALYNYIKAGYGTRIISGQTSDYYNTVSPNAAKKPVIRAYDFQHYTVGYSYLWNNATASHTFGWEDDGTTQAAIDWYNSTCQKGMVAFHWHWHSPSGGQAGTNTFYTNSTAFDVTKAVTQGTPEYTAVIRDIDSIATQLKRLQAAGVPVLWRPLHEAGGAWFWWGAKGPAAALALYDMVYNRIVNYHNIHNLIWQWSTPEANWYPGNSKVDMLGYDSYPGAYNYGTQKLIFDQLYTIVNGQKILAMTENGPIPDPDLCFSSDAKWAYVMSWSDLVTQQNSSAQLNLVYNHAKVLTLDEVTTATNTAQLTAEGHHHHHH | soluble
MSLIARRNPIEQLPAIAQDPDKFGVLLSAAEFRTHLVESIRQARKRIYLVALYLENDDAGREILTELYAAKQRNPGLEIHICVDWHRAQRGLIGAAESEGNAAMYRDFAQQHEHCIPVYGIPVRGREVFGVLHLKGFIIDDQVIYSGASLNNVYLQFHGRYRFDRYHTLENAELADSMVHFIQQEMLAHPAVNNLACGSKPTTKEIKSDIRQFRASLAQANYQFAKQKVNEGQVAVTPLVGLGRRRNRLNQSIIQLLASAKDEVFICTPYFNFPPSIAKEVKKALRRGVKVHIVIGDKTANDFYIAPEEPFKTIGGLPYLYELNLRRFAKANEAHIASRKLSIHLWKHENHSFHLKGIWVDKRYMLITGNNLNPRAWKLDLENAILIRDDYHHLTTKFEAEIDNILQHTQLICTYKQIEKPEHYPEKVQRLVRRIMRLKADRVLKQILEGHHHHHH | not soluble
MSLICSISNEVPEHPCVSPVSNHVYERRLIEKYIAENGTDPINNQPLSEEQLIDIKVAHPIRPKPPSATSIPAILKALQDEWDAVMLHSFTLRQQLQTTRQELSHALYQHDAACRVIARLTKEVTAAREALATLKPQAGLIVPQAVPSSQPSVVGAGEPMDLGELVGMTPEIIQKLQDKATVLTTERKKRGKTVPEELVKPEELSKYRQVASHVGLHSASIPGILALDLCPSDTNKILTGGADKNVVVFDKSSEQILATLKGHTKKVTSVVFHPSQDLVFSASPDATIRIWSVPNASCVQVVRAHESAVTGLSLHATGDYLLSSSDDQYWAFSDIQTGRVLTKVTDETSGCSLTCAQFHPDGLIFGTGTMDSQIKIWDLKERTNVANFPGHSGPITSIAFSENGYYLATAADDSSVKLWDLRKLKNFKTLQLDNNFEVKSLIFDQSGTYLALGGTDVQIYICKQWTEILHFTEHSGLTTGVAFGHHAKFIASTGMDRSLKFYSL | soluble
MSLIEQLIQQAQPYWQQYIEHEFVQQLAKGTLPKACFQHYLKQDYLYLFHYSRAFALGVFKAKNFAEMETPRKTLEILCQEIQLHLNYCREWGISEQEIFTTQESAACIAYTRYLLDCGMTGSLAELYAAVTPCALGYAQVARYITQHYPRLPNNPYQTWIDTYASEEFQQAAQETVDFLTALCKPLNPSQLAEIQQIFTTATRMEIAFWQMGLDLAEGGSHHHHHH | soluble
MSLIKKVLPLAEQLRPKNLNDIVGQDHILGENGLITKTIESQIPLSVILWGPPGCGKTSIARLYAQAFNMQFISMSAIFSGVADLKKTIKEAQNQPLFHKGTLLFVDEIHRFNKSQQDAFLPFVENGTIILIGATTENPSFYLNGALLSRLRVLPIYPLDGFSLEQLLERYEKQFAPLPLTAEARHWLITCAQGDGRYLYNLIENLRYASKQILDIPLLEKIFQKRSPLFDKRGDQHYNLISALHKSVRGSDPNAAIYWFTRMLEGGEEPLFLARRLIRMAVEDIGLSDPQALPLAIAAKDAYEMLGSPEGELALAEVVIYLALAPKSNAVYRAFGMAKESASKTSYLNPPLTILNAPTKMMKNLGYGKDYQYDPDLPEAFSGQNYFPDSLEKQHFYEPVERGFERELKKRLEYFEQLRLKKKEGHHHHHH | soluble
MSLILKRVYIDFEMNMPNSKSKRAVFNSDIIAIGAVMYDEKTKNIDKFKSLIRPVSNEELYPHIQELTHISSEELKSAPSYEEVMRKFKKWLGIFSDIKGIYTFGNLDLTCFNNTDMRSAKKNNHPRFVNNIRDLFVDIKEKYINCGMRCMNYISLKNLLEFVNLEFSGDAHDPLNDAYNLFILDEAITNNVDIQNLLIIRDIIRPPFNDINSNLDNCFNKFKESLYKKEGNYNIVDFSVEIIKTVRMYLLTIIDVNIQNLEIMKDISKKMDTIDKLKDIEEGYFYLLEDVYFDMKDVLEDLMLYRMNEDEYKYEIKNIIKMFDEDLDNEKIYINKCNNLNVVNKEGHHHHHH | not soluble
MSLIPKIKDISVIECQPAGVRLTVVKITTDQDGLYGYGCATFTQRADLVKPAVERYLKPFLMGKTTDRIEDIWQSCYDSSYWKNGPVLNNAISGIDQALWDIKGRQAGLPVYQLAGGKCREAADCYAHADGADFPNVVEAAKRYMAQGFRHVRVQIGVPGMAGYGSSRGDTKVQALHSKPVFEPAYYVRRALKLFEVCRTELGEEIELLHDMHERVSPNQAVQFVKDAEKFKMFFMEDPLSPEDIAYFRQIRQQCATPIAMGELFNSPHEWTPLISERLIDYIRVHVSQAGGFTPARKIAILGETFGVKTAWHGPGDVSPIGHMANVTLDLVSYNFGIQEYSPFNGRTQEIFSGCPVMKDGYLYASEKPGWGIEVDEKLAAKAPFTDREGHHHHHH | not soluble
